Measurements from patent US20060257867.

Target: T1, ghrelin (D-enantiomer, rat) (Rattus norvegicus) (UniProt Q9QYH7)
T1 sequence: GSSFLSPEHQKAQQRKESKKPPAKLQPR
Assay: pulldown
Details: bead assay, active conformation; 37 C

Row | Sequence | Kd
1 | GGAGCUCAGACUUCACUCGUGUGAGGCAAUAAAAACUUAAGUCCGAAGGUAACCAAUCCUACACGUACCACUGUCGGUUCCAC [E3] | < 100 nM
2 | GGAGCUCAGACUUCACUCGUGUGAGGCAAUAAAACAUAAGUCCGAAGGUAACCAAUCCUACACGUACCACUGUCGGUUCCAC [B7] | < 100 nM
3 | GGAGCUCAGACUUCACUCGUGUGAGGCAAUAAAACUUAAGUCCGAAGGUAACCAAUCCUGCACGUACCACUGUCGGUUCCAC [E12] | < 100 nM
4 | GGAGCUCAGACUUCACUCGUGUGAGGCAAUAAAACUUGUAAGUCCGAAGGUAACCAAUCCUACACGUACCACUGUCGGUUCCAC [B12] | < 100 nM
5 | GGAGCUCAGACUUCACUCGUGUGAGGCAGUAAAACUUAAGUCCGAAGGUAACCAAUCCUACACGUACCACUGUCGGUUCCAC [G2] | < 100 nM
6 | GGAGCUCAGACUUCACUCGUGUGAGGUAGUAAAAAAAAAAAAAAAACAUAAAUCCGAAGGUAACCAAUCCUACACGUACCACUGUCGGUUCCAC [G5] | < 100 nM
7 | GGAGCUCAGACUUCACUCGUGUGAGGUAGUAAAAAAAAAAAACGUAAAUCCGAAGGUAACCAAUCCUACACGUACCACUGUCGGUUCCAC [A12] | < 100 nM
8 | GGAGCUCAGACUUCACUCGUGUGAGGUAGUAAAAAAAAAAACGUAAAUCCGAAGGUAACCAGUCCUACACGUACCACUGUCGGUUCCAC [F5] | < 100 nM
9 | GGAGCUCAGACUUCACUCGUGUGAGGUAGUAAAAAAAAAACGUAAAUCCGAAGGUAACCAAUCCUACACGUACCACUGUCGGUUCCAC [A3] | < 100 nM
